# Data as given in patent publication US20110275702.
# System: Ramos cell surface target (unidentified; human B-cell leukemia cells)
# Assay: competition
# Conditions: flow cytometry
# [1] = competition with FITC-labeled monomer on target cells
Sequence,IC50 [1],IC50 (unlabeled monomer vs FITC-labeled monomer on target cells)
TAGGCAGTGGTTTGACGTCCGCATGTTGGGAATAGCCACGCCT / TAGGCAGTGGTTTGACGTCCGCATGTTGGGAATAGCCACGCCT / TAGGCAGTGGTTTGACGTCCGCATGTTGGGAATAGCCACGCCT / TAGGCAGTGGTTTGACGTCCGCATGTTGGGAATAGCCACGCCT [rigid tetramer of SEQ 3 aptamer],0.0116 µM,–
TAGGCAGTGGTTTGACGTCCGCATGTTGGGAATAGCCACGCCT / TAGGCAGTGGTTTGACGTCCGCATGTTGGGAATAGCCACGCCT / TAGGCAGTGGTTTGACGTCCGCATGTTGGGAATAGCCACGCCT [flexible trimer of SEQ 3 aptamer],0.0278 µM,–
TAGGCAGTGGTTTGACGTCCGCATGTTGGGAATAGCCACGCCT / TAGGCAGTGGTTTGACGTCCGCATGTTGGGAATAGCCACGCCT / TAGGCAGTGGTTTGACGTCCGCATGTTGGGAATAGCCACGCCT [rigid trimer of SEQ 3 aptamer],0.0208 µM,–
TAGGCAGTGGTTTGACGTCCGCATGTTGGGAATAGCCACGCCT / TAGGCAGTGGTTTGACGTCCGCATGTTGGGAATAGCCACGCCT [flexible dimer of SEQ 3 aptamer],0.033 µM,–
TAGGCAGTGGTTTGACGTCCGCATGTTGGGAATAGCCACGCCT / TAGGCAGTGGTTTGACGTCCGCATGTTGGGAATAGCCACGCCT [rigid dimer of SEQ 3 aptamer],0.0225 µM,–
TAGGCAGTGGTTTGACGTCCGCATGTTGGGAATAGCCACGCCT [Ramos-binding ssDNA aptamer monomer],–,0.4 µM
